According to paper PMC8977143, “PDIA3/ERp57 promotes a matrix-rich secretome that stimulates fibroblast adhesion through CCN2” (American Journal of Physiology - Cell Physiology, 2022):

Biological target: T1, Native human platelet thrombospondin-1 (human, UniProt P07996 19-1170)
T1 construct: thrombospondin-1 (TSP1), human, native protein from platelets; also called TSP1; native human TSP1; source: bought: Cell Sciences Inc. (Cat. No. CSL19832A), native from human platelets
Test: ELISA; solid-phase binding: PDIA3/ERp57 or CCN2 coated at various concentrations on Immulon 2Hb wells in TBS with 2 mM CaCl2 and 15 µM ZnSO4, 16 h at 4°C; blocked with 5% BSA; 50 µg/mL (388 µM as printed) native human TSP1 added for 1 h at room temperature; detected with anti-TSP1 (C9) and anti-mouse-IgG-HRP, absorbance at 450 nm
Conditions: both partners purified

T1 sequence (P07996 19-1170): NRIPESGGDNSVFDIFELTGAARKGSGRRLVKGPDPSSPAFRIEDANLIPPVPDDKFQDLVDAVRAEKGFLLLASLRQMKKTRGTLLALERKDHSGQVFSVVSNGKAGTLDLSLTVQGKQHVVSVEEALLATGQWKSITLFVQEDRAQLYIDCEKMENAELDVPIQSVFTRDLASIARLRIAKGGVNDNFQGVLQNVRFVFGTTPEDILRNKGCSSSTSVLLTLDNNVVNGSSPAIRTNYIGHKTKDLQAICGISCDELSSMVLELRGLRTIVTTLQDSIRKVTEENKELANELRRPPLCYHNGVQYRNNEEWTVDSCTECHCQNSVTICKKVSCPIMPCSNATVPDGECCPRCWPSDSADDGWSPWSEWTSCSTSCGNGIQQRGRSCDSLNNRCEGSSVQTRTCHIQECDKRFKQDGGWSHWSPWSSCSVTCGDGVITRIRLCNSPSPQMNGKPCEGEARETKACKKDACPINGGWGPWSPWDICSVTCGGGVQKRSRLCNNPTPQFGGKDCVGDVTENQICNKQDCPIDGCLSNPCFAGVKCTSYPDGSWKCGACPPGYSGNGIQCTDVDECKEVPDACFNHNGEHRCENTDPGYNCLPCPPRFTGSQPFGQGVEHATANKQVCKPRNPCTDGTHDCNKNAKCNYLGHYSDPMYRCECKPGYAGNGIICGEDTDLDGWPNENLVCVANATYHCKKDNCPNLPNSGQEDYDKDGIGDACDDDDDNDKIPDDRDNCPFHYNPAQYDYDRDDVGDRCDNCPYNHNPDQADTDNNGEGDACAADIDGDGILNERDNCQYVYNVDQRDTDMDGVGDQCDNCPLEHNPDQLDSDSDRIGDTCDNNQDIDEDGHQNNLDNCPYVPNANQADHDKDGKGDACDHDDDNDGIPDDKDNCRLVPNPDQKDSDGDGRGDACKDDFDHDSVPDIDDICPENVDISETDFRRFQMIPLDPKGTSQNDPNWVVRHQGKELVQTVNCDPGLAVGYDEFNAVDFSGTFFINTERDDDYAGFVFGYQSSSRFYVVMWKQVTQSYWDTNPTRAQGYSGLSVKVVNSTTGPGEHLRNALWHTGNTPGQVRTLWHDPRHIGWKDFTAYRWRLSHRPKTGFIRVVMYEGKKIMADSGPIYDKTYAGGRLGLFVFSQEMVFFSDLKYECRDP

B1: Recombinant human PDIA3/ERp57 (enzyme, UniProt P30101 25-505, looked up)
chain: SDVLELTDDNFESRISDTGSAGLMLVEFFAPWCGHCKRLAPEYEAAATRLKGIVPLAKVDCTANTNTCNKYGVSGYPTLKIFRDGEEAGAYDGPRTADGIVSHLKKQAGPASVPLRTEEEFKKFISDKDASIVGFFDDSFSEAHSEFLKAASNLRDNYRFAHTNVESLVNEYDDNGEGIILFRPSHLTNKFEDKTVAYTEQKMTSGKIKKFIQENIFGICPHMTEDNKDLIQGKDLLIAYYDVDYEKNAKGSNYWRNRVMMVAKKFLDAGHKLNFAVASRKTFSHELSDFGLESTAGEIPVVAIRTAKGEKFVMQEEFSRDGKALERFLQDYFDGNLKRYLKSEPIPESNDGPVKVVVAENFDEIVNNENKDVLIEFYAPWCGHCKNLEPKYKELGEKLSKDPNIVIAKMDATANDVPSPYEVRGFPTIYFSPANKKLNPKKYEGGRELSDFISYLQREATNPPVIQEEKPKKKKKAQEDL
notes: protein disulfide isomerase A3 (PDIA3/ERp57), human, recombinant; Limits, host and tags are told only by the supplier's data sheet; source: bought: Abcam (Cat. No. ab92937)
binding result: binds

B2: Recombinant human CCN2 (natural protein, UniProt P29279 27-349, looked up)
chain: QNCSGPCRCPDEPAPRCPAGVSLVLDGCGCCRVCAKQLGELCTERDPCDPHKGLFCHFGSPANRKIGVCTAKDGAPCIFGGTVYRSGESFQSSCKYQCTCLDGAVGCMPLCSMDVRLPSPDCPFPRRVKLPGKCCEEWVCDEPKDQTVVGPALAAYRLEDTFGPDPTMIRANCLVQTTEWSACSKTCGMGISTRVTNDNASCRLEKQSRLCMVRPCEADLEENIKKGKKCIRTPKISKPIKFELSGCTSMKTYRAKFCGVCTDGRCCTPHRTTTLPVEFKCPDGEVMKKNMMFIKTCACHYNCPGDNDIFESLYYRKMYGDMA
notes: cell communication network 2 (CCN2/CTGF), human, recombinant; Limits, host and tags are told only by the supplier's data sheet; also called cell communication network 2; CTGF; source: bought: R&D (Cat. No. 9190-CC-050)
binding result: binds
